The supplement of paper PMC10065799, “High-throughput profiling of sequence recognition by tyrosine kinases and SH2 domains using bacterial peptide display” (eLife, 2023)

What was measured:
Hck = Hck (UniProt P08631); assay: phosphorylation enrichment, bacterial display (enrichment ratio); higher = better substrate or ligand; peptides without Tyr show the background
EPHB2 = EPHB2 (UniProt P29323); assay: as above
Fer (mouse) = assay: as above
Fyn = Fyn (UniProt P06241); assay: as above
EPHB1 = EPHB1 (UniProt P54762); assay: as above
Fes = Fes (UniProt P07332); assay: as above
Sequence of Fes (P07332 whole entry, looked up): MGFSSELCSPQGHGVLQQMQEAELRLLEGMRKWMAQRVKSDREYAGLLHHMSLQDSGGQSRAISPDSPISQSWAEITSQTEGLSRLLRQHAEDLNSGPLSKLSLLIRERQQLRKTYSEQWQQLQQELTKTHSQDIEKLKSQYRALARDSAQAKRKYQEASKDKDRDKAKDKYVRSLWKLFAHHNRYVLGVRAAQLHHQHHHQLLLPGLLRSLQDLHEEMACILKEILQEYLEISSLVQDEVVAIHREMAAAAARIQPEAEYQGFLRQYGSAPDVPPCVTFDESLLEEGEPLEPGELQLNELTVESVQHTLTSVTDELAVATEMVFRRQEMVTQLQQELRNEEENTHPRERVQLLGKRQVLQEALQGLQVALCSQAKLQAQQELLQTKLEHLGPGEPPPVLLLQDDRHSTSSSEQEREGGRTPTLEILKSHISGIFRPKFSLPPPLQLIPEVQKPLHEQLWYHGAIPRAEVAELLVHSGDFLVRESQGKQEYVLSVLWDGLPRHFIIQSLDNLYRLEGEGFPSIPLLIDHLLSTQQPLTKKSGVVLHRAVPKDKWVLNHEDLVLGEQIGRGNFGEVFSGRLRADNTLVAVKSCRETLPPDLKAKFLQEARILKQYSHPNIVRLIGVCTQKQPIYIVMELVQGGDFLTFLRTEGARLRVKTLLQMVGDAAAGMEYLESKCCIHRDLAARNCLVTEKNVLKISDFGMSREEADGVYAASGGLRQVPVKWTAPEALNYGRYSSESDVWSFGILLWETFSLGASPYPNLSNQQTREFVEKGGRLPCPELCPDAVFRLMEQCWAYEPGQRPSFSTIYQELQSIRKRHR

AncSZ = assay: as above
FGFR1 = FGFR1 (UniProt P11362); assay: as above
Sequence of FGFR1 (P11362 whole entry, looked up): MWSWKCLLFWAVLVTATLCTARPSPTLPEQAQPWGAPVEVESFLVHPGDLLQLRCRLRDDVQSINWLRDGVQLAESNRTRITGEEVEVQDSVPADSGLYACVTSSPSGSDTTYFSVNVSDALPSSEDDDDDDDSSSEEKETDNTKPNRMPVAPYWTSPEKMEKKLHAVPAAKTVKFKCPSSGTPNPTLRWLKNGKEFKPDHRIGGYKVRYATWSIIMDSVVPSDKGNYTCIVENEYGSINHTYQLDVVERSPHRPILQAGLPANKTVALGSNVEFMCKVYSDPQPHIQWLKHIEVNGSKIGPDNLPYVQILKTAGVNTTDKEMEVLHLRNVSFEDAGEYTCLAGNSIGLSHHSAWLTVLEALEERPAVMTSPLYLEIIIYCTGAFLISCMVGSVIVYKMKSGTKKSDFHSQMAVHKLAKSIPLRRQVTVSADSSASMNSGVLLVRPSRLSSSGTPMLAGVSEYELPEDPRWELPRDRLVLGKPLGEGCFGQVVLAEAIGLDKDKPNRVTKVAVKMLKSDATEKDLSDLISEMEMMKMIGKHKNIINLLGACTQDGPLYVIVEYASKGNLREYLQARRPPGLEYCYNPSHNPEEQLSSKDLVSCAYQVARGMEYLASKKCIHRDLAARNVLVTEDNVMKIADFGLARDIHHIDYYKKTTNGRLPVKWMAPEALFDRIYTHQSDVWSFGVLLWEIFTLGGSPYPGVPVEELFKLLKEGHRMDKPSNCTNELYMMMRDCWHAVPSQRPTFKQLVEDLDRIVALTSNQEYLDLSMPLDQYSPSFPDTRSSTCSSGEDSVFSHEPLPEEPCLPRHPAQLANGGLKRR

c-Abl (mouse) = assay: as above
FGFR3 = FGFR3 (UniProt P22607); assay: as above
Sequence of FGFR3 (P22607 whole entry, looked up): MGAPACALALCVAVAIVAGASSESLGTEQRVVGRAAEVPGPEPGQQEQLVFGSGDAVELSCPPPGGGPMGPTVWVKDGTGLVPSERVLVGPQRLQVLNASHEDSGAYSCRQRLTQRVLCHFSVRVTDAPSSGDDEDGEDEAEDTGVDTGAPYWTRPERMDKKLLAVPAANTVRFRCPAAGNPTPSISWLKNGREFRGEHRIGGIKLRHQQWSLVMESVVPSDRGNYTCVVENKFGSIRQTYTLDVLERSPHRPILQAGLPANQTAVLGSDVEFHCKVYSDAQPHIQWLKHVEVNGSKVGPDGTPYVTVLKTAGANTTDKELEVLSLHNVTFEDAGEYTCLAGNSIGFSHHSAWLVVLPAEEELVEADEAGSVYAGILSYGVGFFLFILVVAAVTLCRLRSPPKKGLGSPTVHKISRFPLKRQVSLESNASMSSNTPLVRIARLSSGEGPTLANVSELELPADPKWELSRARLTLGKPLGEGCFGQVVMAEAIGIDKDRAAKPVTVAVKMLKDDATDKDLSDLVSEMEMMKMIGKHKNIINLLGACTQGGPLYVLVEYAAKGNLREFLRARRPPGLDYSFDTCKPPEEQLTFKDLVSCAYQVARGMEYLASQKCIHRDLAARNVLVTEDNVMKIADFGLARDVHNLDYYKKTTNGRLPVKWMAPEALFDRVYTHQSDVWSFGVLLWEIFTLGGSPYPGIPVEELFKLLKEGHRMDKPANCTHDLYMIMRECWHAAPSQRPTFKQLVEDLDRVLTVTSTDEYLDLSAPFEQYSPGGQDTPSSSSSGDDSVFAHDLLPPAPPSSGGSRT

Jak2 = Jak2 (UniProt O60674); assay: as above
c-Src = assay: as above
MERTK = MERTK (UniProt Q12866); assay: as above
Sequence of MERTK (Q12866 whole entry, looked up): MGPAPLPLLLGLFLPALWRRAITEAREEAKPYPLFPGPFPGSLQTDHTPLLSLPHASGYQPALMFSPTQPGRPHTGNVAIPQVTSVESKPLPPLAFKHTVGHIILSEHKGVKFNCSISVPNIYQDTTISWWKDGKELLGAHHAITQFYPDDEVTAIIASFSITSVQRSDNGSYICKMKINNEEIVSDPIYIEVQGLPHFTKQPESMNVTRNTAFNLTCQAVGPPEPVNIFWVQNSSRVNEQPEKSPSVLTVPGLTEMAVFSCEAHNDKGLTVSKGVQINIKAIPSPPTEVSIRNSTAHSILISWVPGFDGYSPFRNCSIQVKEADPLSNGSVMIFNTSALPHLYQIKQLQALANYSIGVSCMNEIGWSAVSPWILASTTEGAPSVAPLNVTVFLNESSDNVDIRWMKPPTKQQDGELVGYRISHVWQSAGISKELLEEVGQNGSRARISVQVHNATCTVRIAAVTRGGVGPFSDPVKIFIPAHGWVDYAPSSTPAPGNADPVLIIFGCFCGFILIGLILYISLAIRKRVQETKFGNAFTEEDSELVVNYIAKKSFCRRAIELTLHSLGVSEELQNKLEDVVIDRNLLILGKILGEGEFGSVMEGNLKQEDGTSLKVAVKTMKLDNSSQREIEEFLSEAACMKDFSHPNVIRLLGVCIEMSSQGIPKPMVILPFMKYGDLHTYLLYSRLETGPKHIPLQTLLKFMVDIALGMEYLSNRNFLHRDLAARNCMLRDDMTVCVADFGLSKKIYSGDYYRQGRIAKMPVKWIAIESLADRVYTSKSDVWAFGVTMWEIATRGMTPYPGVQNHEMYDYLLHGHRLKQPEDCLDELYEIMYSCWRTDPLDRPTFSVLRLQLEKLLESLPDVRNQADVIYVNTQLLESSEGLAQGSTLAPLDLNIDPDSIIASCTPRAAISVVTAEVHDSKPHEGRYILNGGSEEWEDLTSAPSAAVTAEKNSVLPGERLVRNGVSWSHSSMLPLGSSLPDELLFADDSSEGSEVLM

c-Src SH2 = assay: SH2 binding enrichment of the phosphorylated peptide, bacterial display (enrichment ratio); higher = better substrate or ligand; peptides without Tyr show the background
SHP2-C SH2 = assay: as above
Grb2 SH2 = Grb2 SH2 (UniProt P62993); assay: as above
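Throughout, for SH2 binding enrichment of the phosphorylated peptide, bacterial display: peptide library displayed on the E. coli surface as eCPX fusions, selected cells deep-sequenced, score is each peptide's frequency after selection divided by its frequency in the input.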
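Throughout, for phosphorylation enrichment, bacterial display: 11-residue human phosphosite peptides and single-mutation variants displayed on the E. coli surface, counted by deep sequencing, each peptide's frequency after selection divided by its frequency in the unselected input library; frequency after pTyr selection over input frequency; kinase dosed for 20-30% of maximal phosphorylation in three min.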

Sequence of Fyn (P06241 whole entry, looked up): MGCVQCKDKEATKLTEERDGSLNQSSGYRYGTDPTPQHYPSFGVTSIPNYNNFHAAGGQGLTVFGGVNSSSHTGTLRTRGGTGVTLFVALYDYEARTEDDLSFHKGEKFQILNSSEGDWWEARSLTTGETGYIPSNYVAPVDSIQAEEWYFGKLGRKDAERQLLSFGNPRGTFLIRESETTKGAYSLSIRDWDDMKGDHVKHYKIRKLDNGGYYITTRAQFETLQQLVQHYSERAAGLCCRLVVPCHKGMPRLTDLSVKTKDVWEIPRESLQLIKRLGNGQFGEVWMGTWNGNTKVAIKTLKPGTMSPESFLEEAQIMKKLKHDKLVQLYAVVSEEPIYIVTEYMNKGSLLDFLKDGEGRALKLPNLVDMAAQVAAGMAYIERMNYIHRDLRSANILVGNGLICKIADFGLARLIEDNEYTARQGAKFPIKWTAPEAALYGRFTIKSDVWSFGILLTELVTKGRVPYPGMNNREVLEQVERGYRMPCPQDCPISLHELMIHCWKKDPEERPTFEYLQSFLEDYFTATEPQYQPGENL
Sequence of EPHB2 (P29323 whole entry, looked up): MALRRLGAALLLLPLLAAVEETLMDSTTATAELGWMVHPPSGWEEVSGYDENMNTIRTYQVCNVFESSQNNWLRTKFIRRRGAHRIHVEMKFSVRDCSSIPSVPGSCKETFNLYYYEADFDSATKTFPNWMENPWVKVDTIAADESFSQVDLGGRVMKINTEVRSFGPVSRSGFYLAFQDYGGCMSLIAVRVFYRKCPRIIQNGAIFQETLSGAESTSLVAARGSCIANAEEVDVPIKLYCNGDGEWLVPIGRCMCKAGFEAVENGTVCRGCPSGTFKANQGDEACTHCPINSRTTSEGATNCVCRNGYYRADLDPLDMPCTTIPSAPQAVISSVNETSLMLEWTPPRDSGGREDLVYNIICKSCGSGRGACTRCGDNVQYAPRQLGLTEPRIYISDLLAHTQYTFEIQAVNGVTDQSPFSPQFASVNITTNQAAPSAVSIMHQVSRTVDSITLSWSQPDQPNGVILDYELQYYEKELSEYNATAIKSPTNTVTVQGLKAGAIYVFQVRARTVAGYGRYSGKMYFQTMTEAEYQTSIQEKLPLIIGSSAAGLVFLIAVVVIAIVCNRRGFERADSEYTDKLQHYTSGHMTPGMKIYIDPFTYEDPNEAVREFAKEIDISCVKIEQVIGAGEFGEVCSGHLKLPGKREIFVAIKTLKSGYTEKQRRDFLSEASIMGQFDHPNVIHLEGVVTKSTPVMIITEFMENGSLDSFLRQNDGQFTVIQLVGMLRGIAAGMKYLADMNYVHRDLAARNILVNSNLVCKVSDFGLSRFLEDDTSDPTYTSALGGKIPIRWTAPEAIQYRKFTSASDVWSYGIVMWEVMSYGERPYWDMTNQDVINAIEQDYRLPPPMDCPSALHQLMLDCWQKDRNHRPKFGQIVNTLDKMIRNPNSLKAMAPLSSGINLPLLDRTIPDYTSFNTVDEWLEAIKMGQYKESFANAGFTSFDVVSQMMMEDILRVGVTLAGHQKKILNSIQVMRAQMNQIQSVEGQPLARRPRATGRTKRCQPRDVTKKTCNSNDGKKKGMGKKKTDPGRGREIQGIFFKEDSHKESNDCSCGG

Row | Sequence | phosphorylation enrichment (Hck) | phosphorylation enrichment (EPHB2) | phosphorylation enrichment (Fer (mouse)) | phosphorylation enrichment (Fyn) | phosphorylation enrichment (EPHB1) | phosphorylation enrichment (Fes) | phosphorylation enrichment (AncSZ) | phosphorylation enrichment (FGFR1) | phosphorylation enrichment (c-Abl (mouse)) | phosphorylation enrichment (FGFR3) | phosphorylation enrichment (Jak2) | phosphorylation enrichment (c-Src) | phosphorylation enrichment (MERTK) | SH2 binding enrichment (c-Src SH2) | SH2 binding enrichment (SHP2-C SH2) | SH2 binding enrichment (Grb2 SH2)
1 | CTTIHYNYLCN [TP53_Y234_M237L] | 0.536 | 0.491 | 0.568 | 0.51 | 0.482 | 0.84 | 0.873 | 0.505 | 0.479 | 0.594 | 0.655 | 0.394 | 0.436 | 4.93 | 4.87 | 1.45
2 | CTTIRYNYMCN [TP53_Y234_H233R] | 0.449 | 0.583 | 0.479 | 0.464 | 0.461 | 0.81 | 0.787 | 0.475 | 0.491 | 0.544 | 0.674 | 0.417 | 0.457 | 3.56 | 1.55 | 1.48
3 | CTTLHYNYMCN [TP53_Y234_I232L] | 0.547 | 0.618 | 1.41 | 0.492 | 0.808 | 1.01 | 0.858 | 0.811 | 0.675 | 0.745 | 0.827 | 0.508 | 0.558 | 4.31 | 2.06 | 1.21
4 | DAHFTYSRYPW [LY75_Y888_D884A] | 3.76 | 5.6 | 0.5 | 2.4 | 2.76 | 0.885 | 1.16 | 0.716 | 1.19 | 0.641 | 1.02 | 3.24 | 1.27 | 0.51 | 0.761 | 0.817
5 | DAKTIYDFTDT [PDK1_Y136_A134T] | 1.33 | 0.604 | 1.61 | 3.52 | 0.696 | 1.07 | 1.07 | 0.508 | 0.724 | 0.729 | 0.876 | 3.32 | 1.48 | 0.46 | 0.58 | 0.748
6 | DDEVFYSPRSL [OTC_Y317] | 2 | 0.597 | 1.57 | 0.574 | 0.597 | 1.36 | 1.67 | 0.504 | 1.22 | 0.847 | 1.36 | 0.87 | 0.592 | 0.47 | 0.647 | 0.774
7 | DDIPLYLKGGV [COX7A2_Y44_E40D] | 0.513 | 0.701 | 0.401 | 0.459 | 0.525 | 1.12 | 1.01 | 0.496 | 0.673 | 0.737 | 1.02 | 0.435 | 0.41 | 0.479 | 0.663 | 0.862
8 | DEDEEYEFMNR [ERBB3_Y1197_YF] | 0.579 | 0.515 | 0.487 | 0.592 | 0.503 | 1.17 | 1.26 | 0.724 | 0.692 | 0.788 | 0.965 | 0.456 | 0.538 | 0.664 | 1.28 | 1.04
9 | DEGVNHFMSKG [FBXO8_Y156_Y156H] | 0.364 | 0.424 | 0.357 | 0.443 | 0.433 | 0.64 | 0.61 | 0.436 | 0.516 | 0.504 | 0.42 | 0.297 | 0.324 | 0.464 | 0.778 | 0.718
10 | DFGSGYPNDPK [RNASEH2A_Y210_YF] | 0.423 | 0.469 | 0.39 | 0.382 | 0.516 | 0.678 | 0.778 | 0.397 | 0.562 | 0.579 | 0.906 | 0.464 | 0.424 | 0.409 | 0.712 | 0.749
11 | DGTIVYTGLET [USH2A_Y4487] | 0.773 | 0.528 | 0.468 | 0.706 | 0.525 | 1.01 | 0.821 | 0.755 | 0.764 | 0.636 | 0.901 | 1.05 | 0.465 | 0.844 | 2.8 | 0.829
12 | DHLASYLDKVR [KRT10_Y160_R156H] | 0.439 | 0.477 | 0.363 | 0.406 | 0.369 | 0.677 | 0.585 | 0.46 | 0.473 | 0.469 | 0.639 | 0.457 | 0.453 | 0.44 | 0.714 | 0.776
13 | DIPIRYSITGV [CDH4_Y205] | 0.45 | 0.474 | 0.402 | 0.447 | 0.391 | 0.827 | 0.822 | 0.444 | 0.641 | 0.478 | 0.85 | 0.367 | 0.405 | 0.53 | 0.972 | 0.774
14 | DLDLTSIFPNI [PTEN_Y27_Y27S_YF] | 0.497 | 0.485 | 0.441 | 0.475 | 0.402 | 0.814 | 0.861 | 0.301 | 0.677 | 0.578 | 0.726 | 0.358 | 0.447 | 0.48 | 0.524 | 0.722
15 | DPLASYLDKVR [KRT10_Y160_R156P] | 0.477 | 0.608 | 0.455 | 0.468 | 0.413 | 0.744 | 0.751 | 0.48 | 0.392 | 0.534 | 0.521 | 0.44 | 0.441 | 0.545 | 0.767 | 0.864
16 | DRLASYRDKVR [KRT12_Y139_L140R] | 0.327 | 0.338 | 0.366 | 0.372 | 0.294 | 0.447 | 0.466 | 0.27 | 0.442 | 0.425 | 0.587 | 0.347 | 0.332 | 1.09 | 0.947 | 0.878
17 | DRLAVCIDRVR [LMNA_Y45_Y45C] | 0.477 | 0.518 | 0.457 | 0.46 | 0.605 | 1.15 | 0.942 | 0.467 | 0.76 | 0.682 | 0.904 | 0.436 | 0.394 | 0.541 | 0.653 | 0.807
